# Test results published in patent US8716246B2, “Azuvirin peptides” (The Regents of the University of California, priority 2011, dated 2014).
# Square brackets hold non-standard residues; d marks the D form. Peptide text beside a SMILES is read from it. * marks the point of attachment. Oic = O=C(O)[C@@H]1C[C@@H]2CCCC[C@@H]2N1; Cha = N[C@@H](CC1CCCCC1)C(=O)O; Tle = CC(C)(C)[C@H](N)C(=O)O; Nicotinoyl = O=C(c1cccnc1)*; Acm = CC(=O)NC*
# Columns and labels:
# rhEphB4 = target: T1, rhEphB4 (Homo sapiens, UniProt P54760); assay: SPR binding to immobilized rhEphB4 (Biacore 3000)
# T1 construct: purchased R&D Systems, Inc., Minneapolis, Minn
# T1 sequence (P54760 16-987): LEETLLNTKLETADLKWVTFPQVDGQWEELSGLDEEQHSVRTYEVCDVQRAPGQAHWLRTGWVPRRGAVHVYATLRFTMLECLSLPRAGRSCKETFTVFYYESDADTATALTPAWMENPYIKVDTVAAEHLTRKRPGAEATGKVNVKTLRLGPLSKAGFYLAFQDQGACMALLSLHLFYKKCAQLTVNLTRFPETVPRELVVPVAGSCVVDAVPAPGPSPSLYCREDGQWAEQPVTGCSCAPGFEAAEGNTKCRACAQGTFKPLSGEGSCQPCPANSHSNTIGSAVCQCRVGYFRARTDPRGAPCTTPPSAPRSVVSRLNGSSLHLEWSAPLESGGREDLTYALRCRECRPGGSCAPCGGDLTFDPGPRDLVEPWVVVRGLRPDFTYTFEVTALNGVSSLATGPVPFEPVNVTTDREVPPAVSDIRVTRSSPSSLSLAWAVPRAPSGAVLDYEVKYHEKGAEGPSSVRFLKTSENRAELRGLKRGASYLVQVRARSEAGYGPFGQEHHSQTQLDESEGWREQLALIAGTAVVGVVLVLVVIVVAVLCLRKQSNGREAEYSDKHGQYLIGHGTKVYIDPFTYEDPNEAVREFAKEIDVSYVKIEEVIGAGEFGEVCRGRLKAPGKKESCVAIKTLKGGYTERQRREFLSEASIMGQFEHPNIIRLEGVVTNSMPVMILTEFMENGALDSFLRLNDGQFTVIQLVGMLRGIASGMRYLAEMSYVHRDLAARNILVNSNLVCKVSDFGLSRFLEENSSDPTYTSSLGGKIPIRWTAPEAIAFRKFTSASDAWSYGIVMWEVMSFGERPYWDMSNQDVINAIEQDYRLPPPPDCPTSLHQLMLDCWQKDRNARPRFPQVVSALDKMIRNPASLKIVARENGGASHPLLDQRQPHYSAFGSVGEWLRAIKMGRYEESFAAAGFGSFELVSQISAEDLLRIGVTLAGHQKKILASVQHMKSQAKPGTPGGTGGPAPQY
# Description: (§1) Binding to selected ephrin receptors was measured by surface plasmon resonance on a Biacore3000 instrument. Commercially available ephrin receptors: EphA2, EphB2 and EphB4 (R&D Systems) were immobilized on a CM-5 chip by amine coupling and tested peptides were passed over a chip surface as analytes.
# (§2) Binding studies. Binding studies were performed by surface plasmon resonance (SPR) on a BIAcore 3000 system (BiaCore AB, Piscataway, N.J.). BIAcore CM5 sensor chips were utilized in all experiments. Binding studies were performed in HBS-EP running buffer (pH=7.4) containing 10 mM HEPES, 150 mM NaCl, 3 mM EDTA, and 0.005% polysorbate 20. Commercially available ephrin receptors: EphA2, EphB2 and EphB4 (R&D Systems, Inc., Minneapolis, Minn.) were immobilized on a CM5 sensor chip using the amine coupling method. The chip was activated by mixing 400 mM N-ethyl-N-(3-dimethylaminopropyl)-carbodiimide hydrochloride and 100 mM N-hydroxysuccinimide. Residual reactive groups on the chip surface were blocked using 1.0 M ethanolamine/HCl (pH=8.5). The flow cell-1 chip, which served as a control, lacked immobilized protein but was treated with N-ethyl-N-(3-dimethylaminopropyl)-carbodiimide hydrochloride, N hydroxysuccinimide, and ethanolamine/HCl. Binding signals were corrected for nonspecific binding by subtracting the flow cell-1 signal (blank surface). To regenerate chip surfaces, bound ligands were removed with 10 mM HCl. Data were analyzed with BIAevaluation 4.1 software (Biacore, Piscataway, N.J.).
# [1] = test system: human red blood cells (hRBCs)
# Description: Human red blood cells (hRBCs). Fresh blood (˜3 ml) was collected from an anonymous donor into a tube that contained heparin as an anticoagulant. An aliquot of blood (200 μl) was removed and washed 4 with 800 μl of cold PBS at room temperature, each centrifugation was for 3 minutes at ˜500×g. A total of 780 μl of supernatant was removed each time. With four washes, this procedure should remove >99.8% of the total serum protein and any heparin anticoagulant. The supernatant was completely removed in the last wash, leaving only the packed red blood cells, which were subsequently diluted 1:20 in PBS to make 5% v/v stock of hRBCs.
# Hemolysis assay. The experiments were carried out as previously described. Briefly, 2.5% v/v normal human RBCs were exposed to various concentrations of AzV36-NicL at 37° C. for 30 min. All experiment were carried out in triplicate using 96-well microplate (Costar 3596) and OD at 700 nm was monitored every 30 s. employing the SpectraMAX 250 microplate reader (Molecular Devices, Sunnyvale, Calif.). Controls: PBS, human RBCs, human RBCs+2.5% Triton (100% lysis). The hemolytic effect was calculated as following: […]
# [2] = Observation of toxicity during the in vivo mouse studies; set-up: species or system C57BL/6 mice; settings: 25 mg/kg IP
# Description: Animal experiments. C57BL/6 gnotobiotic mice (8 weeks old) were obtained from the UCLA AALAC accredited Department of Radiation Oncology Facility and intravenously injected with 5×10^5 cells of syngeneic LLC. Various treatments were initiated 4 days later, after cancer engraftment. In general, each animal received intraperitoneally a total of 500 μg (˜25 mg/kg) of peptide (or equimolar amount of nicotinamide) in 4 daily doses 60 min before local thoracic irradiation (0 or 4 Gy, total dose: 4.4=16 Gy) that was delivered using an Atomic Energy of Canada cesium gamma irradiator with a dose rate of approximately 0.6 Gy/min with the rest of the body shielded. Prior to irradiation animals were anesthetized by intraperitoneal injection of ketamine/xylazine mixture. Animals were sacrificed on the 14th day of the experiment and lung tumor nodules were counted. All experiments were approved by the UCLA Animal Care and Use Committee and conformed to local and national guidelines.
# C57BL/6 mice (8 weeks old) were injected subcutaneously with 1.0×10^6 cells of syngeneic LLC (leg). After 10 days, palpable tumors of approximately 5 mm diameter appeared and treatment was initiated. […] Tumor size was assessed every two days and animals sacrificed as necessary according to the UCLA Animal Care guidelines.
# rhEphB2/Fc = rhEphB2/Fc (Homo sapiens, UniProt P29323); assay: SPR binding to immobilized rhEphB2/Fc (Biacore 3000); set-up: Fc; purchased R&D Systems, Inc., Minneapolis, Minn
# Description: as §1, §2
smiles,measurement,setting,value
"CC(=O)NCSC[C@H](NC(=O)[C@H](CC1CCCCC1)NC(=O)[C@H](CC1CCCCC1)NC(=O)[C@@H](CCCCNC(=O)c1cccnc1)NC(=O)[C@@H](N)Cc1ccc(O)cc1)C(=O)N[C@H](C(=O)N[C@@H](CC1CCCCC1)C(=O)N1[C@H](C(=O)N[C@H](CCCNC(=N)N)C(=O)N[C@@H](Cc2c[nH]cn2)C(=O)N[C@@H](CCCNC(=N)N)C(=O)N[C@H](C(=O)N[C@@H](CC2CCCCC2)C(=O)N[C@@H](CSCNC(C)=O)C(=O)N[C@H](CCCCN)C(N)=O)[C@@H](C)O)C[C@@H]2CCCC[C@@H]21)C(C)(C)C [AzV36-NicL, YkNic-Cha-Cha-Cam-Tle-Cha-Oic-rHRT-Cha-Cam-k-CONH] (H-Y[dK](Nicotinoyl)[Cha][Cha]C(Acm)[Tle][Cha][Oic][dR]HRT[Cha]C(Acm)[dK]-NH2)",Kd,rhEphB4,5.83 ± 1.4 nM
same,Hemolysis ± SEM,"[1]; 20 μM peptide (highest tested), 2.5% hRBCs, 37° C., 30 min",9.3±3.0%
same,hemolytic effect (in words),[1]; ≦10 μM peptide,non-hemolytic
same,toxic effect of the injections in vivo,[2],no obvious toxic effect
same,Kd,rhEphB2/Fc,14.3 ± 3.3 nM
